These results are taken from the supplement of paper PMC9112550, “Optimization of the antimicrobial peptide Bac7 by deep mutational scanning” (BMC Biology, 2022).
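Note: peptides expressed intracellularly from a pBAD plasmid library in pooled LB shake-flask culture, induced with 0.3% L-arabinose, DNA abundance read by NGS, three biological replicates, DESeq2 with apeglm shrinkage.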

For the data set, the system named is Escherichia coli TOP10. Briefly: shrunken log2 fold change of peptide-encoding DNA abundance (4.5 h post-induction vs induction); higher = less antimicrobial activity (less host growth inhibition). Particulars: time post-induction: 4.5 h; library: site-saturation at positions 5, 18, 19, 20.
Regarding RRIRKRPPRLPRPRPRPMMYPRP, the “shrunken log2 fold change” value was -0.00208.

Regarding RRIRMRPPRLPRPRPRPGCEPRP, the “shrunken log2 fold change” value came to 1.87.

Regarding RRIRARPPRLPRPRPRPLQPPRP, the “shrunken log2 fold change” value is 0.583.

As for RRIRYRPPRLPRPRPRPDFCPRP, the “shrunken log2 fold change” value was -0.228.

As to RRIRNRPPRLPRPRPRPFREPRP, the “shrunken log2 fold change” value is -0.0373.

On to RRIRSRPPRLPRPRPRPPHGPRP, for which the “shrunken log2 fold change” value is 0.1.

Regarding RRIRPRPPRLPRPRPRPMIKPRP, the “shrunken log2 fold change” value was -0.696.

On to RRIRCRPPRLPRPRPRPVRSPRP, for which the “shrunken log2 fold change” value was 0.549.

RRIRHRPPRLPRPRPRPCFCPRP: the “shrunken log2 fold change” value was -0.226.

Turning to RRIRHRPPRLPRPRPRPTELPRP, the “shrunken log2 fold change” value is 0.0215.

On to RRIRKRPPRLPRPRPRPTSSPRP, for which the “shrunken log2 fold change” value turned out to be 0.0586.

For the sequence RRIRRRPPRLPRPRPRPSPKPRP, the “shrunken log2 fold change” value is 0.127.

Turning to RRIRWRPPRLPRPRPRPCEPPRP, the “shrunken log2 fold change” value was -0.27.

With RRIRFRPPRLPRPRPRPLCAPRP, the “shrunken log2 fold change” value was -0.0266.

In the case of RRIRCRPPRLPRPRPRPLIRPRP, the “shrunken log2 fold change” value is -0.109.

Regarding RRIRHRPPRLPRPRPRPYNGPRP, the “shrunken log2 fold change” value is -0.835.

RRIRLRPPRLPRPRPRPENQPRP: the “shrunken log2 fold change” value is -0.0987.

As to RRIRNRPPRLPRPRPRPRPCPRP, the “shrunken log2 fold change” value came to 0.0913.

For the sequence RRIRPRPPRLPRPRPRPWPTPRP, the “shrunken log2 fold change” value came to 0.438.

With RRIRDRPPRLPRPRPRPAGGPRP, the “shrunken log2 fold change” value was 1.11.

Take RRIRWRPPRLPRPRPRPGCWPRP: the “shrunken log2 fold change” value was determined as 1.09.

On to RRIRLRPPRLPRPRPRPDRPPRP, for which the “shrunken log2 fold change” value worked out at 0.265.

On to RRIRMRPPRLPRPRPRPYELPRP, for which the “shrunken log2 fold change” value came out at 0.0224.

Take RRIRARPPRLPRPRPRPAELPRP: the “shrunken log2 fold change” value was 0.426.

As for RRIRHRPPRLPRPRPRPMNGPRP, the “shrunken log2 fold change” value is -0.287.

For the sequence RRIRVRPPRLPRPRPRPDMGPRP, the “shrunken log2 fold change” value is -0.0133.

As to RRIRSRPPRLPRPRPRPSKHPRP, the “shrunken log2 fold change” value is -0.461.

On to RRIRLRPPRLPRPRPRPRRTPRP, for which the “shrunken log2 fold change” value came to 0.354.

As to RRIRQRPPRLPRPRPRPKIDPRP, the “shrunken log2 fold change” value is -0.146.

Consider RRIRCRPPRLPRPRPRPGFNPRP, for which the “shrunken log2 fold change” value was -0.391.

Turning to RRIRMRPPRLPRPRPRPETLPRP, the “shrunken log2 fold change” value was -0.0225.

Turning to RRIRYRPPRLPRPRPRPQMFPRP, the “shrunken log2 fold change” value was -0.0885.

As for RRIRRRPPRLPRPRPRPPATPRP, the “shrunken log2 fold change” value turned out to be 0.958.

In the case of RRIRMRPPRLPRPRPRPMPTPRP, the “shrunken log2 fold change” value was 2.8.

As to RRIRFRPPRLPRPRPRPDYTPRP, the “shrunken log2 fold change” value is -0.02.

As to RRIRVRPPRLPRPRPRPKFFPRP, the “shrunken log2 fold change” value is -0.0182.

With RRIRGRPPRLPRPRPRPWIAPRP, the “shrunken log2 fold change” value is -0.0596.

On to RRIRARPPRLPRPRPRPFANPRP, for which the “shrunken log2 fold change” value turned out to be 0.0657.

For the sequence RRIRIRPPRLPRPRPRPNRSPRP, the “shrunken log2 fold change” value was found to be 0.00656.

Turning to RRIRERPPRLPRPRPRPHPQPRP, the “shrunken log2 fold change” value is -0.103.

Consider RRIRKRPPRLPRPRPRPACVPRP, for which the “shrunken log2 fold change” value stood at 0.735.

On to RRIRGRPPRLPRPRPRPDEWPRP, for which the “shrunken log2 fold change” value worked out at 0.757.

For RRIRYRPPRLPRPRPRPHCLPRP, the “shrunken log2 fold change” value is -0.0757.

Turning to RRIRPRPPRLPRPRPRPAGSPRP, the “shrunken log2 fold change” value is 0.206.

With RRIRRRPPRLPRPRPRPPSFPRP, the “shrunken log2 fold change” value came out at 0.251.

As for RRIRCRPPRLPRPRPRPRKEPRP, the “shrunken log2 fold change” value was found to be 0.239.

On to RRIRARPPRLPRPRPRPGGIPRP, for which the “shrunken log2 fold change” value amounted to 0.254.

Consider RRIRHRPPRLPRPRPRPYIDPRP, for which the “shrunken log2 fold change” value is -0.0149.

RRIRQRPPRLPRPRPRPNIPPRP: the “shrunken log2 fold change” value is -0.262.

In the case of RRIRCRPPRLPRPRPRPPKVPRP, the “shrunken log2 fold change” value is -0.138.

For the sequence RRIRWRPPRLPRPRPRPTEHPRP, the “shrunken log2 fold change” value is -0.093.

Take RRIRCRPPRLPRPRPRPNIQPRP: the “shrunken log2 fold change” value is -0.584.

Turning to RRIRWRPPRLPRPRPRPMQSPRP, the “shrunken log2 fold change” value came to 0.185.

As to RRIRRRPPRLPRPRPRPYSNPRP, the “shrunken log2 fold change” value is -0.414.

Consider RRIRKRPPRLPRPRPRPIEGPRP, for which the “shrunken log2 fold change” value was -0.00926.

For RRIRTRPPRLPRPRPRPVIFPRP, the “shrunken log2 fold change” value was -0.335.

For the sequence RRIRCRPPRLPRPRPRPSMVPRP, the “shrunken log2 fold change” value was -0.312.

Turning to RRIRHRPPRLPRPRPRPFIFPRP, the “shrunken log2 fold change” value was -0.656.

Consider RRIRCRPPRLPRPRPRPQGAPRP, for which the “shrunken log2 fold change” value is -0.144.

On to RRIRKRPPRLPRPRPRPELIPRP, for which the “shrunken log2 fold change” value was 0.0174.

On to RRIRWRPPRLPRPRPRPFSVPRP, for which the “shrunken log2 fold change” value is -0.159.

As for RRIRKRPPRLPRPRPRPEWGPRP, the “shrunken log2 fold change” value was 0.755.

In the case of RRIRYRPPRLPRPRPRPIDRPRP, the “shrunken log2 fold change” value is -0.017.

In the case of RRIRMRPPRLPRPRPRPTDEPRP, the “shrunken log2 fold change” value was 0.116.

For the sequence RRIRHRPPRLPRPRPRPCNLPRP, the “shrunken log2 fold change” value was -0.135.

RRIRPRPPRLPRPRPRPTQWPRP: the “shrunken log2 fold change” value is 0.248.

As for RRIRGRPPRLPRPRPRPTRDPRP, the “shrunken log2 fold change” value is 0.965.

With RRIRGRPPRLPRPRPRPARGPRP, the “shrunken log2 fold change” value worked out at 0.915.

As to RRIRTRPPRLPRPRPRPCCSPRP, the “shrunken log2 fold change” value worked out at 0.123.

On to RRIRFRPPRLPRPRPRPHNHPRP, for which the “shrunken log2 fold change” value was -0.835.

As to RRIRGRPPRLPRPRPRPRTRPRP, the “shrunken log2 fold change” value came out at 1.01.

Turning to RRIRRRPPRLPRPRPRPLFIPRP, the “shrunken log2 fold change” value was -0.27.

As to RRIRPRPPRLPRPRPRPFFTPRP, the “shrunken log2 fold change” value was -0.117.

Regarding RRIRKRPPRLPRPRPRPISNPRP, the “shrunken log2 fold change” value stood at 0.153.

Consider RRIRFRPPRLPRPRPRPGFVPRP, for which the “shrunken log2 fold change” value amounted to 0.126.

Take RRIRCRPPRLPRPRPRPVQEPRP: the “shrunken log2 fold change” value is 0.286.

RRIRDRPPRLPRPRPRPQPLPRP: the “shrunken log2 fold change” value worked out at 0.194.

On to RRIRYRPPRLPRPRPRPHIVPRP, for which the “shrunken log2 fold change” value was -0.102.

As for RRIRNRPPRLPRPRPRPNATPRP, the “shrunken log2 fold change” value is -0.185.

Turning to RRIRERPPRLPRPRPRPSTEPRP, the “shrunken log2 fold change” value was 0.0386.

Regarding RRIRVRPPRLPRPRPRPDVRPRP, the “shrunken log2 fold change” value is -0.106.

For the sequence RRIRCRPPRLPRPRPRPGIKPRP, the “shrunken log2 fold change” value is -0.876.

As for RRIRLRPPRLPRPRPRPYWHPRP, the “shrunken log2 fold change” value was -0.61.

On to RRIRRRPPRLPRPRPRPTWNPRP, for which the “shrunken log2 fold change” value is 0.951.

With RRIRTRPPRLPRPRPRPHITPRP, the “shrunken log2 fold change” value was -0.625.

For RRIRPRPPRLPRPRPRPPQYPRP, the “shrunken log2 fold change” value came to 0.189.

On to RRIRYRPPRLPRPRPRPNIAPRP, for which the “shrunken log2 fold change” value is -0.64.

In the case of RRIRLRPPRLPRPRPRPYARPRP, the “shrunken log2 fold change” value is -0.44.

Regarding RRIRHRPPRLPRPRPRPSDSPRP, the “shrunken log2 fold change” value was -0.0454.

Regarding RRIRVRPPRLPRPRPRPTPQPRP, the “shrunken log2 fold change” value amounted to 0.279.

RRIRLRPPRLPRPRPRPYPWPRP: the “shrunken log2 fold change” value is -0.141.

For the sequence RRIRDRPPRLPRPRPRPYTRPRP, the “shrunken log2 fold change” value was -0.0984.

On to RRIRLRPPRLPRPRPRPFAVPRP, for which the “shrunken log2 fold change” value was -0.0849.

On to RRIRNRPPRLPRPRPRPDGTPRP, for which the “shrunken log2 fold change” value is -0.128.

On to RRIRQRPPRLPRPRPRPAVKPRP, for which the “shrunken log2 fold change” value is -0.00195.

In the case of RRIRARPPRLPRPRPRPQDCPRP, the “shrunken log2 fold change” value is 0.0638.

As to RRIRVRPPRLPRPRPRPRNCPRP, the “shrunken log2 fold change” value was -0.129.

In the case of RRIRQRPPRLPRPRPRPDHYPRP, the “shrunken log2 fold change” value was -0.213.

In the case of RRIRCRPPRLPRPRPRPNHWPRP, the “shrunken log2 fold change” value was -0.0209.

With RRIRRRPPRLPRPRPRPGCIPRP, the “shrunken log2 fold change” value worked out at 0.0498.

Take RRIRERPPRLPRPRPRPGEDPRP: the “shrunken log2 fold change” value is -0.0649.

Regarding RRIRCRPPRLPRPRPRPTGHPRP, the “shrunken log2 fold change” value is -0.113.

Consider RRIRWRPPRLPRPRPRPWGMPRP, for which the “shrunken log2 fold change” value was -0.246.

For the sequence RRIRRRPPRLPRPRPRPNFNPRP, the “shrunken log2 fold change” value is -0.0741.

As for RRIRQRPPRLPRPRPRPRHGPRP, the “shrunken log2 fold change” value is -0.203.

Turning to RRIRQRPPRLPRPRPRPMANPRP, the “shrunken log2 fold change” value is -0.18.

As for RRIRWRPPRLPRPRPRPKQWPRP, the “shrunken log2 fold change” value worked out at 0.155.

For the sequence RRIRTRPPRLPRPRPRPRHRPRP, the “shrunken log2 fold change” value stood at 0.0476.

As for RRIRPRPPRLPRPRPRPGFMPRP, the “shrunken log2 fold change” value is 0.048.

Regarding RRIRYRPPRLPRPRPRPVDNPRP, the “shrunken log2 fold change” value is -0.0156.

For the sequence RRIRERPPRLPRPRPRPDMTPRP, the “shrunken log2 fold change” value came to 0.133.

For RRIRIRPPRLPRPRPRPTVPPRP, the “shrunken log2 fold change” value came to 0.185.

Take RRIRPRPPRLPRPRPRPQSNPRP: the “shrunken log2 fold change” value was -0.285.

In the case of RRIRDRPPRLPRPRPRPIMNPRP, the “shrunken log2 fold change” value came out at 0.0718.

Take RRIRYRPPRLPRPRPRPCDWPRP: the “shrunken log2 fold change” value is -0.0122.

With RRIRDRPPRLPRPRPRPPRPPRP, the “shrunken log2 fold change” value was determined as 0.616.

For the sequence RRIRDRPPRLPRPRPRPGCTPRP, the “shrunken log2 fold change” value came to 0.727.

Consider RRIRIRPPRLPRPRPRPMKRPRP, for which the “shrunken log2 fold change” value turned out to be 0.0451.

As for RRIRLRPPRLPRPRPRPLCFPRP, the “shrunken log2 fold change” value was -0.233.

RRIRSRPPRLPRPRPRPSCLPRP: the “shrunken log2 fold change” value is -0.585.

Regarding RRIRRRPPRLPRPRPRPSQGPRP, the “shrunken log2 fold change” value was 0.0642.

RRIRFRPPRLPRPRPRPFATPRP: the “shrunken log2 fold change” value was -0.0942.

As for RRIRYRPPRLPRPRPRPTEPPRP, the “shrunken log2 fold change” value is -0.131.

As for RRIRLRPPRLPRPRPRPLQSPRP, the “shrunken log2 fold change” value was found to be 0.0468.

Turning to RRIRTRPPRLPRPRPRPAAWPRP, the “shrunken log2 fold change” value came out at 0.754.
